The subject of the series is Escherichia coli TOP10. Nature of the series: shrunken log2 fold change of peptide-encoding DNA abundance (4.5 h post-induction vs induction); higher = less antimicrobial activity (less host growth inhibition). The conditions noted are these: time post-induction: 4.5 h; library: site-saturation at positions 5, 18, 19, 20.
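Note: peptides expressed intracellularly from a pBAD plasmid library in pooled LB shake-flask culture, induced with 0.3% L-arabinose, DNA abundance read by NGS, three biological replicates, DESeq2 with apeglm shrinkage.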

As to RRIRPRPPRLPRPRPRPGDRPRP, the “shrunken log2 fold change” value is 0.0494.

As to RRIRLRPPRLPRPRPRPHAPPRP, the “shrunken log2 fold change” value stood at 0.304.

For the sequence RRIRSRPPRLPRPRPRPNWFPRP, the “shrunken log2 fold change” value is -0.0702.

Turning to RRIRFRPPRLPRPRPRPMQDPRP, the “shrunken log2 fold change” value was -0.0947.

Turning to RRIRKRPPRLPRPRPRPVGIPRP, the “shrunken log2 fold change” value came to 0.131.

For the sequence RRIRSRPPRLPRPRPRPKTLPRP, the “shrunken log2 fold change” value stood at 2.07.

For RRIRWRPPRLPRPRPRPRLTPRP, the “shrunken log2 fold change” value turned out to be 0.307.

Take RRIRVRPPRLPRPRPRPADAPRP: the “shrunken log2 fold change” value was -0.183.

On to RRIRYRPPRLPRPRPRPPWGPRP, for which the “shrunken log2 fold change” value is -0.0336.

RRIRGRPPRLPRPRPRPFYYPRP: the “shrunken log2 fold change” value came to 0.07.

On to RRIRRRPPRLPRPRPRPIGNPRP, for which the “shrunken log2 fold change” value came to 0.0912.

Turning to RRIRERPPRLPRPRPRPFGPPRP, the “shrunken log2 fold change” value is -0.146.

Consider RRIRCRPPRLPRPRPRPEMCPRP, for which the “shrunken log2 fold change” value came out at 0.0156.

On to RRIRRRPPRLPRPRPRPVMGPRP, for which the “shrunken log2 fold change” value turned out to be 0.0569.

In the case of RRIRDRPPRLPRPRPRPTCVPRP, the “shrunken log2 fold change” value is 0.346.

RRIRERPPRLPRPRPRPLQMPRP: the “shrunken log2 fold change” value was -0.0246.

Turning to RRIRFRPPRLPRPRPRPFYRPRP, the “shrunken log2 fold change” value was -0.202.

Consider RRIRTRPPRLPRPRPRPENIPRP, for which the “shrunken log2 fold change” value was -0.0809.

Regarding RRIRQRPPRLPRPRPRPPCDPRP, the “shrunken log2 fold change” value is -0.0587.

For the sequence RRIRNRPPRLPRPRPRPMFDPRP, the “shrunken log2 fold change” value was -0.253.

In the case of RRIRIRPPRLPRPRPRPCGAPRP, the “shrunken log2 fold change” value was -0.25.

With RRIRVRPPRLPRPRPRPSSEPRP, the “shrunken log2 fold change” value was -0.327.

Consider RRIRQRPPRLPRPRPRPCMNPRP, for which the “shrunken log2 fold change” value was -0.0959.

With RRIRRRPPRLPRPRPRPAFCPRP, the “shrunken log2 fold change” value turned out to be 0.404.

Take RRIRWRPPRLPRPRPRPMDQPRP: the “shrunken log2 fold change” value is -0.131.

Turning to RRIRPRPPRLPRPRPRPLFNPRP, the “shrunken log2 fold change” value is -0.444.

RRIRMRPPRLPRPRPRPWYSPRP: the “shrunken log2 fold change” value was -0.427.

Take RRIRHRPPRLPRPRPRPHFGPRP: the “shrunken log2 fold change” value is -0.00776.

On to RRIRARPPRLPRPRPRPLNAPRP, for which the “shrunken log2 fold change” value came to 0.486.

Take RRIRVRPPRLPRPRPRPEFFPRP: the “shrunken log2 fold change” value amounted to 0.183.

Take RRIRDRPPRLPRPRPRPCQAPRP: the “shrunken log2 fold change” value is -0.0133.

For RRIRLRPPRLPRPRPRPRPWPRP, the “shrunken log2 fold change” value amounted to 0.199.

Consider RRIRTRPPRLPRPRPRPKCMPRP, for which the “shrunken log2 fold change” value was -0.134.

Consider RRIRSRPPRLPRPRPRPSLRPRP, for which the “shrunken log2 fold change” value is -0.269.

RRIRIRPPRLPRPRPRPNWTPRP: the “shrunken log2 fold change” value amounted to 0.117.

Take RRIRDRPPRLPRPRPRPIIWPRP: the “shrunken log2 fold change” value worked out at 0.156.

For the sequence RRIRYRPPRLPRPRPRPYYWPRP, the “shrunken log2 fold change” value is -0.111.

On to RRIRCRPPRLPRPRPRPGQWPRP, for which the “shrunken log2 fold change” value was -0.125.

As to RRIRGRPPRLPRPRPRPYWDPRP, the “shrunken log2 fold change” value is -0.26.

RRIRMRPPRLPRPRPRPNPDPRP: the “shrunken log2 fold change” value is 0.377.

Consider RRIRYRPPRLPRPRPRPNKDPRP, for which the “shrunken log2 fold change” value was -1.01.

RRIRDRPPRLPRPRPRPFYQPRP: the “shrunken log2 fold change” value is -0.276.

On to RRIRCRPPRLPRPRPRPFERPRP, for which the “shrunken log2 fold change” value was -0.0613.

For RRIRGRPPRLPRPRPRPCKWPRP, the “shrunken log2 fold change” value is -0.075.

As for RRIRRRPPRLPRPRPRPIATPRP, the “shrunken log2 fold change” value came to 0.0769.

RRIRLRPPRLPRPRPRPALVPRP: the “shrunken log2 fold change” value was -0.0636.

As for RRIRDRPPRLPRPRPRPPHYPRP, the “shrunken log2 fold change” value is 0.0761.

RRIRQRPPRLPRPRPRPQGNPRP: the “shrunken log2 fold change” value worked out at 0.00341.

In the case of RRIRERPPRLPRPRPRPIAMPRP, the “shrunken log2 fold change” value came out at 0.188.

In the case of RRIRGRPPRLPRPRPRPGHMPRP, the “shrunken log2 fold change” value is -0.129.

On to RRIRCRPPRLPRPRPRPGKHPRP, for which the “shrunken log2 fold change” value is -0.423.

For the sequence RRIRVRPPRLPRPRPRPKLGPRP, the “shrunken log2 fold change” value turned out to be 0.173.

For RRIRPRPPRLPRPRPRPPVLPRP, the “shrunken log2 fold change” value is -0.0339.

On to RRIRCRPPRLPRPRPRPCVWPRP, for which the “shrunken log2 fold change” value was -0.013.

With RRIRRRPPRLPRPRPRPEMLPRP, the “shrunken log2 fold change” value was 0.0638.

RRIRFRPPRLPRPRPRPVDEPRP: the “shrunken log2 fold change” value was 0.0494.

For the sequence RRIRFRPPRLPRPRPRPAYNPRP, the “shrunken log2 fold change” value is -0.486.

Regarding RRIRTRPPRLPRPRPRPCKIPRP, the “shrunken log2 fold change” value is -0.03.

RRIRFRPPRLPRPRPRPIWSPRP: the “shrunken log2 fold change” value is 0.0199.

RRIRPRPPRLPRPRPRPMGFPRP: the “shrunken log2 fold change” value was -0.0125.

As for RRIRIRPPRLPRPRPRPKIEPRP, the “shrunken log2 fold change” value was -0.0307.

As to RRIRMRPPRLPRPRPRPHMNPRP, the “shrunken log2 fold change” value was -0.0129.

In the case of RRIRGRPPRLPRPRPRPCFQPRP, the “shrunken log2 fold change” value was 0.106.

As for RRIRSRPPRLPRPRPRPSDVPRP, the “shrunken log2 fold change” value was -0.221.

For RRIRLRPPRLPRPRPRPCEQPRP, the “shrunken log2 fold change” value was 0.0377.

Regarding RRIRPRPPRLPRPRPRPCYIPRP, the “shrunken log2 fold change” value was -0.795.

RRIRQRPPRLPRPRPRPSNIPRP: the “shrunken log2 fold change” value is -0.286.

For RRIRTRPPRLPRPRPRPKIIPRP, the “shrunken log2 fold change” value was -0.211.

With RRIRHRPPRLPRPRPRPLRAPRP, the “shrunken log2 fold change” value worked out at 0.513.

With RRIRCRPPRLPRPRPRPIINPRP, the “shrunken log2 fold change” value is -0.325.

As to RRIRKRPPRLPRPRPRPWNNPRP, the “shrunken log2 fold change” value was 0.0165.

Consider RRIRARPPRLPRPRPRPNHQPRP, for which the “shrunken log2 fold change” value is 0.243.

In the case of RRIRIRPPRLPRPRPRPSCDPRP, the “shrunken log2 fold change” value was 0.346.

In the case of RRIRIRPPRLPRPRPRPAQMPRP, the “shrunken log2 fold change” value was -0.0791.

Consider RRIRIRPPRLPRPRPRPFRWPRP, for which the “shrunken log2 fold change” value was -0.00968.

On to RRIRHRPPRLPRPRPRPFYYPRP, for which the “shrunken log2 fold change” value is -0.0287.

Turning to RRIRKRPPRLPRPRPRPYSWPRP, the “shrunken log2 fold change” value was 0.0046.

For RRIRRRPPRLPRPRPRPWNVPRP, the “shrunken log2 fold change” value stood at 0.00231.

Regarding RRIRCRPPRLPRPRPRPREPPRP, the “shrunken log2 fold change” value is 0.211.

With RRIRSRPPRLPRPRPRPRYHPRP, the “shrunken log2 fold change” value was -0.339.

Regarding RRIRPRPPRLPRPRPRPYNGPRP, the “shrunken log2 fold change” value is -0.656.

RRIRQRPPRLPRPRPRPRSHPRP: the “shrunken log2 fold change” value was determined as 0.183.

Consider RRIRPRPPRLPRPRPRPPYGPRP, for which the “shrunken log2 fold change” value is -0.268.

As to RRIRSRPPRLPRPRPRPKRLPRP, the “shrunken log2 fold change” value was 0.297.

Regarding RRIRGRPPRLPRPRPRPFYCPRP, the “shrunken log2 fold change” value is -0.0638.

As for RRIRCRPPRLPRPRPRPDIFPRP, the “shrunken log2 fold change” value was -0.262.

With RRIRNRPPRLPRPRPRPNWPPRP, the “shrunken log2 fold change” value worked out at 0.142.

RRIRMRPPRLPRPRPRPLLSPRP: the “shrunken log2 fold change” value was determined as 0.17.

Take RRIRGRPPRLPRPRPRPPWWPRP: the “shrunken log2 fold change” value amounted to 0.953.

With RRIRRRPPRLPRPRPRPKIDPRP, the “shrunken log2 fold change” value was -0.000206.

RRIRTRPPRLPRPRPRPWIMPRP: the “shrunken log2 fold change” value is -0.621.

RRIRYRPPRLPRPRPRPETYPRP: the “shrunken log2 fold change” value is -0.372.

In the case of RRIRLRPPRLPRPRPRPTMNPRP, the “shrunken log2 fold change” value is -0.362.

In the case of RRIRQRPPRLPRPRPRPTEAPRP, the “shrunken log2 fold change” value is -0.0735.

For the sequence RRIRKRPPRLPRPRPRPACWPRP, the “shrunken log2 fold change” value is 0.96.

As to RRIRTRPPRLPRPRPRPLPLPRP, the “shrunken log2 fold change” value is -0.107.

With RRIRYRPPRLPRPRPRPNSNPRP, the “shrunken log2 fold change” value was -1.47.

With RRIRIRPPRLPRPRPRPWAGPRP, the “shrunken log2 fold change” value was -0.291.

Consider RRIRIRPPRLPRPRPRPNIMPRP, for which the “shrunken log2 fold change” value was -0.947.

RRIRERPPRLPRPRPRPPWSPRP: the “shrunken log2 fold change” value is -0.0222.

Take RRIRKRPPRLPRPRPRPRMTPRP: the “shrunken log2 fold change” value worked out at 0.635.

In the case of RRIRDRPPRLPRPRPRPRCIPRP, the “shrunken log2 fold change” value was -0.0108.

Consider RRIRQRPPRLPRPRPRPPTEPRP, for which the “shrunken log2 fold change” value was -0.153.

Take RRIRDRPPRLPRPRPRPVFIPRP: the “shrunken log2 fold change” value was -0.476.

Regarding RRIRFRPPRLPRPRPRPCGEPRP, the “shrunken log2 fold change” value is -0.0646.

As for RRIRYRPPRLPRPRPRPKKIPRP, the “shrunken log2 fold change” value was -0.483.

Consider RRIRGRPPRLPRPRPRPQGQPRP, for which the “shrunken log2 fold change” value turned out to be 0.414.

On to RRIRNRPPRLPRPRPRPTMMPRP, for which the “shrunken log2 fold change” value was found to be 0.0241.

Take RRIRFRPPRLPRPRPRPPFVPRP: the “shrunken log2 fold change” value was -0.0145.

Turning to RRIRWRPPRLPRPRPRPFPEPRP, the “shrunken log2 fold change” value was -0.145.

Consider RRIRARPPRLPRPRPRPFFYPRP, for which the “shrunken log2 fold change” value amounted to 0.105.

On to RRIRLRPPRLPRPRPRPPLPPRP, for which the “shrunken log2 fold change” value came out at 0.502.

For RRIRLRPPRLPRPRPRPRNTPRP, the “shrunken log2 fold change” value is -0.0367.

On to RRIRRRPPRLPRPRPRPYRPPRP, for which the “shrunken log2 fold change” value was -0.0416.

Take RRIRYRPPRLPRPRPRPAVKPRP: the “shrunken log2 fold change” value was -0.0154.

As for RRIRKRPPRLPRPRPRPFTSPRP, the “shrunken log2 fold change” value was found to be 0.093.

For RRIRCRPPRLPRPRPRPPDQPRP, the “shrunken log2 fold change” value is 0.581.

Turning to RRIRIRPPRLPRPRPRPDPEPRP, the “shrunken log2 fold change” value was -0.158.

For RRIRLRPPRLPRPRPRPVQRPRP, the “shrunken log2 fold change” value turned out to be 0.134.

As to RRIRWRPPRLPRPRPRPLRQPRP, the “shrunken log2 fold change” value worked out at 0.539.

As to RRIRSRPPRLPRPRPRPQNAPRP, the “shrunken log2 fold change” value is -0.427.

Take RRIRWRPPRLPRPRPRPVVCPRP: the “shrunken log2 fold change” value turned out to be 0.301.

RRIRDRPPRLPRPRPRPRRIPRP: the “shrunken log2 fold change” value amounted to 0.0214.

As to RRIRWRPPRLPRPRPRPDTQPRP, the “shrunken log2 fold change” value was -0.0933.

On to RRIRARPPRLPRPRPRPVQRPRP, for which the “shrunken log2 fold change” value is 0.615.

The values are drawn from the supplement of paper PMC9112550, “Optimization of the antimicrobial peptide Bac7 by deep mutational scanning” (BMC Biology, 2022).
